Source: patent US20200332005A1 (I MAB, published 2020)

T1: recombinant human CD73 protein (human, UniProt P21589 27-547)
T1 construct: Bought (Novoprotein); also called recombinant CD73 protein; soluble CD73
T1 sequence: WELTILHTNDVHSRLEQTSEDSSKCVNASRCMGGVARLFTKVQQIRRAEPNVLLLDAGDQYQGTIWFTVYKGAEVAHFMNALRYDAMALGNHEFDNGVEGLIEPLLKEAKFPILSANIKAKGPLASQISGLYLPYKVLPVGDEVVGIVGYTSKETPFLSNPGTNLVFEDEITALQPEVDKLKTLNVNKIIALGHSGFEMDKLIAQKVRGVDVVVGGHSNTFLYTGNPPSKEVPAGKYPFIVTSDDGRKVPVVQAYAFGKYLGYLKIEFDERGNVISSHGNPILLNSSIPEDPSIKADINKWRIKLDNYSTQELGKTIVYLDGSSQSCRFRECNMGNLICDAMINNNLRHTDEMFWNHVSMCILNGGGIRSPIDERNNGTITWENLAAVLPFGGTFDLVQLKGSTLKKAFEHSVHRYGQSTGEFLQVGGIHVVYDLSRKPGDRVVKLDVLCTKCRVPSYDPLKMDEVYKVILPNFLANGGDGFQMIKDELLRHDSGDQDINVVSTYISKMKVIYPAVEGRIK

T2: human CD73 on the cell surface (human, UniProt P21589 27-549)
T2 construct: also called cell surface CD73; CD73 on SK-OV-3 cells
T2 sequence: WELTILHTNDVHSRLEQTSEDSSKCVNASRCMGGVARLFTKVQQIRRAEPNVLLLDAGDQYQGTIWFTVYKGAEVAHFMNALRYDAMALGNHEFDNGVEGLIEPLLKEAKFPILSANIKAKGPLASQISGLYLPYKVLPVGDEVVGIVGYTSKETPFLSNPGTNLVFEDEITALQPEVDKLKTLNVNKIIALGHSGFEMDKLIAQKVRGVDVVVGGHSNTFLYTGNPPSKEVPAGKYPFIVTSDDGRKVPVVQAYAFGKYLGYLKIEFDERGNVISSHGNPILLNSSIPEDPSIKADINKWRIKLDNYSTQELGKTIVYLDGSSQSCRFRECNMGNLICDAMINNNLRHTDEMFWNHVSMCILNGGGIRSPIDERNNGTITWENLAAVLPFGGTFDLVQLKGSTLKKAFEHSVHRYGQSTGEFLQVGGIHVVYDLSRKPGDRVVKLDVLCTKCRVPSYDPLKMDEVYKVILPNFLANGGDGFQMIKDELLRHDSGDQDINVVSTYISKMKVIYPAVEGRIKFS

T3: R401A
T3 construct: also called CD73 variant R401A
T3 CD73 subunit: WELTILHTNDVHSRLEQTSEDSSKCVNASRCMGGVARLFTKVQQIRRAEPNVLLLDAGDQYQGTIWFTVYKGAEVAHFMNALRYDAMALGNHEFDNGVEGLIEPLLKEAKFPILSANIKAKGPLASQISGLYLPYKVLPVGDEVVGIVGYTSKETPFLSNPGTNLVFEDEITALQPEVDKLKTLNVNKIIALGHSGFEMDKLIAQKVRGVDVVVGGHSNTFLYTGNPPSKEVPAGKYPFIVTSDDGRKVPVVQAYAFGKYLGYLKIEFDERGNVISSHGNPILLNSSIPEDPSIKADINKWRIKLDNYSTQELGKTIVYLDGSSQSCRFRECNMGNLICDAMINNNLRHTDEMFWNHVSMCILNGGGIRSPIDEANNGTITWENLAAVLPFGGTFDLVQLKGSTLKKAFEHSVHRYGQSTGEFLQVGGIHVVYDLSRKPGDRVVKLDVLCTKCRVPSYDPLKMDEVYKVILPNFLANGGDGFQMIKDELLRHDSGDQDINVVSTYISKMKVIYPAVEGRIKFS

T4: Y345A
T4 construct: also called CD73 variant Y345A
T4 CD73 subunit: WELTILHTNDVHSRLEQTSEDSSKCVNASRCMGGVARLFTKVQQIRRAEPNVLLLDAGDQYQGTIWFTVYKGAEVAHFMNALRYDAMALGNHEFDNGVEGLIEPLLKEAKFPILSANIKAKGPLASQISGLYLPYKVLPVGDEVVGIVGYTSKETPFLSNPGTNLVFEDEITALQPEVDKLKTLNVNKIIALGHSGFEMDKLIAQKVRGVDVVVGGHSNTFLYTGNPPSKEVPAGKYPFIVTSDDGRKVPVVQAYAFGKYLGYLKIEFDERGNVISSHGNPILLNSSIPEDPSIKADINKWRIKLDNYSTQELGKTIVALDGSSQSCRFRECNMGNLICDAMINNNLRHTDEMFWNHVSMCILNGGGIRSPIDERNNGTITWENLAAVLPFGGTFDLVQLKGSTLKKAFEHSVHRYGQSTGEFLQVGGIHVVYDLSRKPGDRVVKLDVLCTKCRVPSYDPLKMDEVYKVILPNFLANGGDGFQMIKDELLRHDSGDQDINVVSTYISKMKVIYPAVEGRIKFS

T5: E400A
T5 construct: also called CD73 variant E400A
T5 CD73 subunit: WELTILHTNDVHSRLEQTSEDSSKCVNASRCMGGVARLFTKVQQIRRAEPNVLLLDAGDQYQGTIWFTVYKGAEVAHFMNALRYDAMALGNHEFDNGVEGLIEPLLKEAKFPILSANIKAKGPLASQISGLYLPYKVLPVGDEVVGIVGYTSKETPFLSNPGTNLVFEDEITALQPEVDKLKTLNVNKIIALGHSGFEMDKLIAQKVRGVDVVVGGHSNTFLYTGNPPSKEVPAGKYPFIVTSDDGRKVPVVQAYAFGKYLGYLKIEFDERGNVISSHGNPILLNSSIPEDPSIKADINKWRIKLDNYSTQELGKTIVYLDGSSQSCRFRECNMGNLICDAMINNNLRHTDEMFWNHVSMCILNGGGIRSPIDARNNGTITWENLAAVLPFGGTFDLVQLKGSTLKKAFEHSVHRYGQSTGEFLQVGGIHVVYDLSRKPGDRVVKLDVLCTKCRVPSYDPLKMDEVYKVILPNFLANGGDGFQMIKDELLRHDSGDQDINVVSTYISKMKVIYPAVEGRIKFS

T6: D399A
T6 construct: also called CD73 variant D399A
T6 CD73 subunit: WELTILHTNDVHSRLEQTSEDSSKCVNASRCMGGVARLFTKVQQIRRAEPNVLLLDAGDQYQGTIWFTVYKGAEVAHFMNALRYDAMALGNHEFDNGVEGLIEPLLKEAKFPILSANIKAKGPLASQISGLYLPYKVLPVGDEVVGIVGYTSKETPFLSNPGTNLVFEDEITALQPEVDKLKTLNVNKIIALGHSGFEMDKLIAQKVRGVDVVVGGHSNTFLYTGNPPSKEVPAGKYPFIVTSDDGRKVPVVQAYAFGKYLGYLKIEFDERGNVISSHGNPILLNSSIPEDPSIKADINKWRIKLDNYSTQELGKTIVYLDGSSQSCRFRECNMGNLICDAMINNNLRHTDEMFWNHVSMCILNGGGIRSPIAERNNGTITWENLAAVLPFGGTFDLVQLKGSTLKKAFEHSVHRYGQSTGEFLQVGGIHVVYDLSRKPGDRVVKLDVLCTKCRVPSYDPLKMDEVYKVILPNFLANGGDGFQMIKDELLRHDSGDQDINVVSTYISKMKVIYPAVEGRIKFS


Columns and labels:
[1] = target: T1, recombinant human CD73 protein; assay: SPR, Biacore T200, antibody captured by anti-human Fc IgG, antigen as analyte, 1:1 model, 25 C
Method: For the binding assay, the Biacore T200 system was used through human antibody capture approach. The anti-human Fc lgG were immobilized on CMS sensor chip according to the manufactory's instruction. The test antibody was injected and captured by the immobilized anti-human Fc lgG. And then serial concentrations of antigen was individually injected, and the binding profile was recorded for each concentration antigen analyte, respectively. The assay system was regenerated by injection of 10 mM Glycine-HCl pH 1.5 for 30 seconds. The running buffer was HBS-EP+(10 mM HEPES, pH 7.4, 150 mM NaCl, 3 mM EDTA and 0.05% P20). The assay temperature was 25° C., and the association and dissociation time were 180 and 600 seconds, respectively.

[2] = target: T2, human CD73 on the cell surface; assay: flow cytometry on SK-OV-3 cells
Method: Binding was measured using an FACSCanto (Becton-Dickinson), and the results are presented in FIG. 8 (see also the table below).

[3] = target: T1, recombinant human CD73 protein; assay: cell-based or functional assay
[4] = target: T2, human CD73 on the cell surface; assay: cell-based or functional assay
R401A [5] = target: T3, R401A; assay: high-throughput flow cytometry on cells expressing the CD73 variant, in duplicate; mean (range)
Method: (§1) To identify the epitope of Hu101-28, a library of clones of single amino acid-mutated CD73 variants was made. Binding of Hu101-28 Fab to each variant in the library was determined, in duplicate, by high-throughput flow cytometry. For each CD73 variant, the mean binding value was plotted as a function of CD73 expression (represented by control reactivity) on chart and critical residues were identified from the chart. Critical residues for CD73 Fab binding (outlined in red) were identified as those whose mutations were negative for test Fab binding, but positive for the control MAbs. The mean binding reactivities (and ranges) are listed for the critical residues identified in the screens, and are shown in FIG. 23.

Y345A [6] = target: T4, Y345A; assay: as above
Method: as §1

E400A [7] = target: T5, E400A; assay: as above
Method: as §1

D399A [8] = target: T6, D399A; assay: as above
Method: as §1

R401A [9] = target: T3, R401A; assay: high-throughput flow cytometry on cells expressing the CD73 variant
Method: as §1

Y345A [10] = target: T4, Y345A; assay: as above
Method: as §1

E400A [11] = target: T5, E400A; assay: as above
Method: as §1

D399A [12] = target: T6, D399A; assay: as above
Method: as §1

Binder | Kd [1] [nM] | koff [1] [s⁻¹] | kon [1] [M⁻¹ s⁻¹] | EC50 [2] [nM] | IC50 (nM), inhibition of recombinant CD73 enzymatic activity [3] [nM] | IC50 (nM), inhibition of CD73 enzymatic activity on SK-OV-3 cells [4] [nM] | Binding Reactivity (% WT) (R401A [5]) | Binding Reactivity (% WT) (Y345A [6]) | Binding Reactivity (% WT) (E400A [7]) | Binding Reactivity (% WT) (D399A [8]) | binding result (R401A [9]) | binding result (Y345A [10]) | binding result (E400A [11]) | binding result (D399A [12])
Hu101-25 (antibody, V domains shown, also called humanized anti-CD73 antibody Hu101-25) VH: EVQLQESGPGLVKPSETLSLTCAVSGYSISSGYYWNWIRQPPGKGLEWIGYINYGGSNGYNPSLKSRVTISRDTSKNQFSLKLSSVTAADTAVYYCARDYDAYYEALDDWGQGTTVTVSS VL: EIVLSQSPATLSLSPGERATLSCRASSRVNYMHWYQQKPGQSPRPWISATSNLASGVPARFSGSGSGTSYTLTISSLEPEDFAVYYCQQWSSNPPTFGGGTKVEIK | 0.747 | 5.51e-05 | 73700 | 2.38 | 4.72 | 2.98 | – | – | – | – | – | – | – | –
Hu101-28 Fab (Fab, V domains shown, also called test Fab; CD73 Fab) VH: EVQLQESGPGLVKPSETLSLTCAVSGYSITSGYYWNWIRQPPGKKLEWMGYINYGGSNGYNPSLKSRITISRDTSKNQFSLKLSSVTAADTAVYYCARDYDAYYEALDDWGQGTTVTVSS VL: EIVLSQSPATLSLSPGERATLSCRASSRVNYMHWYQQKPGQSPRPWISATSNLASGVPARFSGSGSGTSYTLTISSLEPEDFAVYYCQQWSSNPPTFGGGTKVEIK | – | – | – | – | – | – | 1.1 | 2.7 | 3.6 | 1.8 | no binding | no binding | no binding | no binding
